# Molecular target: androgen receptor ligand binding domain (AR LBD) bound with DHT (chimp construct; LBD sequence stated identical to human)
# Test: X-ray cocrystal structure; surface area buried from both molecules on binding
# androgen receptor ligand binding domain (AR LBD) bound with DHT (chimp construct; LBD sequence stated identical to human), sequence (P10275 whole entry, the tested form may be a part): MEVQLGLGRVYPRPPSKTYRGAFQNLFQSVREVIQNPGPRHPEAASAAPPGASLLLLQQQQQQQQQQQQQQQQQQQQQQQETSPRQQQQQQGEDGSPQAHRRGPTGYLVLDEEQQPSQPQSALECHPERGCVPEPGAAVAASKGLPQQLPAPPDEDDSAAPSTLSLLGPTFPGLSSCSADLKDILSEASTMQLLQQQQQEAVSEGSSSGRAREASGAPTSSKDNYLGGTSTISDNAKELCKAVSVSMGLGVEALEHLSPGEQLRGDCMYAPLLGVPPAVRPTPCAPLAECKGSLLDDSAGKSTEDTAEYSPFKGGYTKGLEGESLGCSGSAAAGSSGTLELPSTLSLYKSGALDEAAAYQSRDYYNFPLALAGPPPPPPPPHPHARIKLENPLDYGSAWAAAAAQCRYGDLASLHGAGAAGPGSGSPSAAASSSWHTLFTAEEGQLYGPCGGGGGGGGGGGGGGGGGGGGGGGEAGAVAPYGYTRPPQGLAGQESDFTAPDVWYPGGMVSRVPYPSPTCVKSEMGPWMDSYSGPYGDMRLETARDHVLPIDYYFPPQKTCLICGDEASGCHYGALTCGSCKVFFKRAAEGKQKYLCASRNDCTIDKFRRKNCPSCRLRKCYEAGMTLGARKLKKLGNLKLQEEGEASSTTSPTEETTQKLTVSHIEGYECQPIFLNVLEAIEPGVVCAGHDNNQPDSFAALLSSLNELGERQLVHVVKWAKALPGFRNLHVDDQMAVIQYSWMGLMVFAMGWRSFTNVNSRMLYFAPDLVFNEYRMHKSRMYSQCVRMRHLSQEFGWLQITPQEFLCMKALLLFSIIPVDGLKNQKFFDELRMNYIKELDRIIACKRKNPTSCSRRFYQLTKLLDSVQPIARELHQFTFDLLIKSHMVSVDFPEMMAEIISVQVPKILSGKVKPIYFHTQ
row,Binder,buried surface area
1,SRWAEVWDDNSKVSR [coactivator-related peptide CRP-7],882 Å^2
2,SSNTPRFKEYFMQSR [coactivator-related peptide CRP-6],1230 Å^2
3,SRWQALFDDGTDTSR [coactivator-related peptide CRP-2],963 Å^2
4,SSKFAALWDPPKLSR [coactivator-related peptide CRP-4],930 Å^2
5,SSRFESLFAGEKESR [coactivator-related peptide CRP-3],1020 A^2
6,SSRGLLWDLLTKDSR [coactivator-related peptide CRP-1],987 A^2
7,SRFADFFRNEGLSGSR [coactivator-related peptide CRP-5],920 Å^2

# Source: US20050202440A1
